Results reported in patent US20240052036A1 (Merck Sharp & Dohme, published 2024).

Target: T1, recombinant human LAG-3 (rhLAG-3) (human, UniProt P18627 23-450, limits assumed)
T1 construct: also called CD223
T1 sequence (looked up): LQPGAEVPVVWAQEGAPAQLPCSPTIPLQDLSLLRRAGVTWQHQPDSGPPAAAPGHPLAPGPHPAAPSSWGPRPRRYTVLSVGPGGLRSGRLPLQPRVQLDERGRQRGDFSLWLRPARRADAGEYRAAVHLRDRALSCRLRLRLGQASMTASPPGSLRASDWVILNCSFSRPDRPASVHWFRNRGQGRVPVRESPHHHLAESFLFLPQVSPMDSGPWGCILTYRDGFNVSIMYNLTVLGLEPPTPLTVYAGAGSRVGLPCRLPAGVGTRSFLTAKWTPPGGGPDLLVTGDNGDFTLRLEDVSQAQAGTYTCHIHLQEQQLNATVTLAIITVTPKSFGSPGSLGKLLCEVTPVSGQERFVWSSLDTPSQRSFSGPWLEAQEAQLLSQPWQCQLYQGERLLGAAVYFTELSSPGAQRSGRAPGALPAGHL
Test: binding ELISA, immobilized rhLAG-3, 4-parameter fit, relative potency
Experimental: The potency assay assesses anti-LAG3 activity in Formulation A through anti-LAG3 binding to immobilized recombinant human LAG-3 (rhLAG-3). Dose response curves were generated by using serial dilutions of anti-LAG3 reference material and test samples. […] Relative potency was calculated by applying Parallel Line Analysis of dose-response curves in SoftMax® Pro. Potency of a test sample was reported as geometric mean potency relative to the reference material with a geometric standard deviation and 95% confidence interval.

B1: anti-LAG3 antibody (SEQ ID NOs: 35 and 57, light and heavy chains) (antibody, human IgG4 S228P, kappa, V domains shown)
VH: QMQLVQSGPEVKKPGTSVKVSCKASGYTFTDYNVDWVRQARGQRLEWIGDINPNDGGTIYAQKFQERVTITVDKSTSTAYMELSSLRSEDTAVYYCARNYRWFGAMDHWGQGTTVTVSS
VL: DIVMTQTPLSLSVTPGQPASISCKASQSLDYEGDSDMNWYLQKPGQPPQLLIYGASNLESGVPDRFSGSGSGTDFTLKISRVEAEDVGVYYCQQSTEDPRTFGGGTKVEIKR
notes: Tested in Formulation A (25 mg/mL antibody, 50 mg/mL sucrose, 0.2 mg/mL polysorbate 80, 10 mM histidine pH 5.8, 70 mM L-arginine-HCl); also called Ab6; anti-LAG3 drug product
  binding result: binds
